Values joined by “and” are separate entries in the source; they are usually repeats but may differ in a detail not shown here. Identical values can stand only once.
Tests used:
[1] = molecular target: T1, LAG3/MHC-II interaction (Homo sapiens, UniProt P18627); test: HTRF LAG3/MHC-II binding assay (Cisbio)
T1 construct: purchased Cisbio US Inc
T1 sequence (P18627 23-450 limits assumed): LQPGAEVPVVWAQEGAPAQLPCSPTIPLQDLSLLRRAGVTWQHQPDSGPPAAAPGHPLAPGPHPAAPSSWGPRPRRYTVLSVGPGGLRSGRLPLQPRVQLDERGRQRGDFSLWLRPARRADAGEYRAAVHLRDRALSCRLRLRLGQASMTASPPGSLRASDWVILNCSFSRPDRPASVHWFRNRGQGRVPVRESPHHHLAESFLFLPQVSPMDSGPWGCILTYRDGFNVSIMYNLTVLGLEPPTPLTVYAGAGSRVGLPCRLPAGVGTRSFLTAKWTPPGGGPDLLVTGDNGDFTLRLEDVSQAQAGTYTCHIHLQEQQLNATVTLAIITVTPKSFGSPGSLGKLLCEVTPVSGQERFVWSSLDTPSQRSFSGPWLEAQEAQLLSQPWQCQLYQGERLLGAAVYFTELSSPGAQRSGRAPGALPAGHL
Description: FIG. 2 is a graph showing the results of a homogeneous time-resolved fluorescence (HTRF) assay for peptide LAG3-11. Reference Ab-LAG3 is an anti-LAG3 antibody. OVA, the ovalbumin (OVA) peptide (ISQAVHAAHAEINEAGR, SEQ ID NO:8). “HTRF ratio” is the emission at 665 nm (acceptor)/emission at 620 nm (donor) multiplied by a factor or 10^4.
A homogeneous time-resolved fluorescence (HTRF) LAG3/MHC-II binding assay (Cisbio US Inc.) was used to measure the interaction between MHC-II and LAG3 in the presence of peptides. In this assay, the interaction between Tag1-LAG3 and Tag2-MHC-II is detected by using anti-Tag1-Terbium (HTRF donor) and anti-Tag2-XL665 (HTRF acceptor). When the donor and acceptor antibodies are brought into close proximity due to LAG3 and MHC-II binding, excitation of the donor antibody triggers fluorescent resonance energy transfer (FRET) towards the acceptor antibody, which in turn emits specifically at 665 nm. This specific signal is directly proportional to the extent of LAG3/MHC-II interaction. Thus, an agent that blocks the interaction between LAG3 and MHC-II will cause a reduction in HTRF ratio.
An anti-human LAG3 antibody (Novoprotein #GMP-A092, Lot 0331158, 500 nM) was tested in the assay at an eleven-point, serially diluted semi-log dose response curve starting at 100 nM and served as a positive control. The ovalbumin peptide was used as a negative control. Peptides were reconstituted at a concentration of 20 mM in […] and tested at an eleven-point dose response curve starting at 100 µM followed by 4-fold dilutions. […]

[2] = molecular target: T2, human LAG3/FGL1 (Homo sapiens, UniProt P18627); test: Human LAG3/FGL1 TR-FRET binding assay (BPS Bioscience)
T2 construct: purchased BPS Bioscience
T2 sequence (P18627 23-450 limits assumed): T1 sequence (P18627 23-450 limits assumed)
Description: The peptides were tested using a human LAG3/FGL1 TR-FRET binding assay (BPS Bioscience) carried out according to the manufacturer's instructions.
Peptide stocks of LAG3-11, LAG3-42, LAG3-48, LAG3-51, LAG3-54, LAG3-56, LAG3-60 and OVA were prepared at 1 mM followed by a 1:5 dilution in plate reactions. LAG3-11 and OVA were tested at 200, 50, 13, 3, 0.8, 0.2, 0.05, and 0.01 μM. The other peptides were tested at 200, 50, 13, and 3 μM. A neutralizing anti-human LAG3 antibody (BPS Bioscience Cat. #71219) was used as a positive control.
Reaction mixes were incubated 1 hr at RT before development. After development, plate was read in a Tecan M1000 TR-FRET instrument. Percent activity was calculated as follows: % Activity=100×[(sample−minimum)/(maximum−minimum)]

[3] = molecular target: T3, soluble recombinant human LAG3 (Homo sapiens, UniProt P18627); test: Clonal phage ELISA after phage display bio-panning; assay type: binding; conditions: for Clonal Phase ELISA uncoated signal: uncoated (background)
T3 construct: soluble recombinant human LAG3
T3 sequence (P18627 23-450 limits assumed): T1 sequence (P18627 23-450 limits assumed)
Description: The TriCo-20™, TriCo-16™, Ph.D.-12™, and Ph.D. C7™ Phage Display Peptide Libraries (Creative Biolabs, 45-1 Ramsey Road, Shirley, NY 11967) were screened by performing several rounds of bio-panning to identify binders of soluble recombinant human LAG3.

[4] = system: human peripheral blood mononuclear cell (PBMC); test: Human PBMC-based recall assay (EBV and CMV viral-specific peptides); assay type: cell-based; conditions: seven days post-stimulation
Description: PBMCs were obtained from a human donor who had previously been identified as a positive responder to Epstein-Barr virus (EBV) and Cytomegalovirus (CMV) viral-specific peptides. 5×10^5 PBMCs in 200 μL of media were stimulated with EBV and CMV viral-specific peptides in the presence or absence of LAG3-11. Seven days post-stimulation, the percentage of virus-specific CD8+ T cells were identified via flow cytometry using MHC-I tetramers. Supernatants were also collected and the amount of […] determined via ELISA.

[5] = system: interaction with LAG3 and its ligand MHC-II; test: Cell-based NFAT-luc2P luciferase reporter assay, LAG3 Jurkat / MHC-II Raji co-culture; design: species or system human; conditions: RLUs at 100 µM compared to RLUs at 0.64 µM
Description: A cell-based reporter assay was used to assess whether binding of the seven peptides identified above was sufficient to block the interaction with LAG3 and its ligand MHC-II. The components of the assay include (1) a Jurkat T cell line that stably expresses human LAG3 and a stable NFAT-luc2P luciferase reporter, (2) a Raji cell line that expresses human MHC-II, and (3) a positive control anti-LAG3 antibody that blocks the interaction of LAG3 and MHC-II. In brief, Jurkat cells expressing LAG3 are stimulated with a T cell receptor (TCR) activator molecule, resulting in expression of luciferase. When the Jurkat cells are co-cultured with an a Raji cell line expressing the MHC-II molecule, the interaction of LAG3 on the surface of a Jurkat cell with MHC-II on the surface of a Raji cell inhibits T cell activation, leading to a reduction in luciferase expression. The addition of a neutralizing antibody against LAG3 blocks the inhibition signal and allows luciferase expression to proceed. BIO-GLO™ (Promega) was used to measure luciferase expression. The seven LAG3 peptides were tested at concentrations of 0, 0.64, 1.6, 4, 10, 25, & 100 µM.
Results of the assay testing the seven LAG3 peptides identified above and a negative control peptide ([…]; SEQ ID NO:9) are shown in FIG. 1B.

[6] = LOG [Compound] M tested for peptide −4, single replicates
[7] = LOG [Compound] M tested for peptide −4.60206, single replicates
[8] = LOG [Compound] M tested for peptide −5.20412, single replicates
[9] = LOG [Compound] M tested for peptide −5.80618, single replicates
[10] = LOG [Compound] M tested for peptide −6.40824
[11] = LOG [Compound] M tested for peptide −7.0103, single replicates
[12] = LOG [Compound] M tested for peptide −7.61236, single replicates
[13] = LOG [Compound] M tested for peptide −8.21442, single replicates
[14] = LOG [Compound] M tested for peptide −8.81648, single replicates
[15] = LOG [Compound] M tested for peptide −9.41854, single replicates
[16] = LOG [Compound] M tested for peptide −10.0206
[17] = LOG [Compound] M tested for peptide −10.6227

Sequence	HTRF ratio [1, 6]	HTRF ratio [1, 7]	HTRF ratio [1, 8]	HTRF ratio [1, 9]	HTRF ratio [1, 10]	HTRF ratio [1, 11]	HTRF ratio [1, 12]	HTRF ratio [1, 13]	HTRF ratio [1, 14]	HTRF ratio [1, 15]	HTRF ratio [1, 16]	HTRF ratio [1, 17]	inhibition of the interaction between human LAG3 and FGL1 [2]	Clonal Phase ELISA coated signal [3]	Clonal Phase ELISA uncoated signal [3]	increase of IFN-7 secretion by human PBMCs ([4]; relative to the viral-specific peptides alone, ELISA)	increase in percentage of tetramer+ CD8 T cells ([4]; flow cytometry, MHC-I tetramers)	fold inhibition (fold increase in luciferase activity) [5]	disruption of LAG3 and MHC-II interaction ([1]; four independent experiments)
HIQNWSYWLNQDMMNQQVWKS (LAG3-56 peptide)	4194 and 4083 and 4373	6880 and 7058 and 7142	8218 and 8349 and 8414	8791 and 8658 and 8464	9040 and 9185 and 9082	8147 and 9275 and 9111	8935 and 9303 and 9093	8765 and 9591 and 9178	8856 (2×) and 8869	9050 and 9029 and 9176	9022 and 8887 and 8540	8885 and 9204 and 8617	inhibit the interaction between human LAG3 and FGL1	0.529	0.101				
SAPWEPLHWPEDWWQGTGEW (LAG3-11 peptide)	3213 and 3460 and 3458	4749 and 5287 and 5014	6812 and 6892 and 6696	7774 and 8164 and 7993	8538 and 8718 and 8858	8794 and 8729 and 8889	9090 and 9036 and 9329	9012 and 9293 and 9067	8877 and 8955 and 8992	8591 and 6950 and 8287	8212 and 8748 and 8700	8886 and 8842 and 9097	inhibit the interaction between human LAG3 and FGL1	0.271	0.093	3 fold	~2 fold	approximately 2.8 fold	disrupts the interaction of LAG3 and MHC-II
